# In patent US7521540B2, “CYR61 compositions and methods” (Munin Corporation, priority 1996, dated 2009):
# Legend:
# αllbβ3 = biological target: T1, αllbβ3 (Homo sapiens, UniProt P05106+P08514); experiment: Solid-phase binding assay with purified integrin; details: for Kd: RGD-affinity purified αllbβ3, immobilized protein, read-out: half-saturation of activated αllbβ3 binding
# T1 construct: from tissue; host or cells: outdated human platelets
# Experimental: In these experiments, activated and unactivated αllbβ3 were purified from platelet lysates. Activated αllbβ3 was purified by RGD affinity chromatography, as described (Knezevic et al., J. Biol. Chem. 271:16416-16421 [1996]). Briefly, outdated human platelets were isolated by differential centrifugation and solubilized in lysis buffer (10 mM HEPES, pH 7.4, 0.15 M NaCl, containing 1 mM CaCl2, 1 mM MgCl2 100 μM leupeptin, 1 mM phenylmethylsulfonyl fluoride, 10 mM-ethylmaleimide, and 50 mM octylglucoside). The octylglucoside extract was incubated with 1 ml GRGDSPK-coupled Sepharose 4B overnight at 4° C. After washing with 15 ml column buffer (same as lysis buffer except it contained 25 mM octylglucoside), bound αllbβ3 was eluted with 1.7 mM H12 (2 ml) in column buffer. The H12 eluate was applied to a Sephacryl S-300 High Resolution column (1.5×95 cm), and αllbβ3 was eluted with 10 mM HEPES, pH 7.4, 0.15 M NaCl, 1 mM CaCl2, 1 mM MgCl2 and 25 mM octylglucoside.
# Unactivated αllbβ3 was isolated by the method of Fitzgerald et al., Anal. Biochem. 151:169-177 (1985), with slight modifications. The flow-through fraction of the GRGDSPK-Sepharose column was applied to a concanavalin A-Sepharose 4B column (1×20 cm). Unbound proteins were washed with 50 ml column buffer, and bound αllbβ3 was then eluted with 100 mM mannose dissolved in column buffer. Fractions containing αllbβ3 were further purified on a Sephacryl S-300 High Resolution column
# To perform the solid-phase binding assay, purified αllbβ3 was added to wells coated with either Cyr61 or Fisp12 (mCTGF) in the presence or absence of inhibitors and binding was allowed to proceed for 3 hours at 37° C. Unbound receptor was removed and the wells wee washed twice with HEPES-Tyrode's Buffer. The binding of purified αllbβ3 to Cyr61 or Fisp12/mCTGF immobilized onto microtiter wells was detected with ^125I-mAb15.
# cornea = experiment: Cornea assay for angiogenic factors; type: in vivo, rat; details: for angiogenic effect in cornea assay: rat, in vivo
# From the text: Another assay for modulators of angiogenesis is an in vivo assay for assessing the effect of a suspected modulator in the presence of an ECM signaling molecule-related biomaterial, such as Cyr61, on angiogenesis is the Cornea Assay. The Cornea Assay takes advantage of the absence of blood vessels in the cornea, which in the presence of an angiogenic factor, results in the detectable development of capillaries extending from the sclera into the cornea. Friedlander et al., Science 270:1500-1502 (1995). This ingrowth of new blood vessels from the sclera can be microscopically monitored. Further, the visually determined rate of migration can be used to assess changes in the rate of angiogenesis. These cornea assays may be performed using a wide variety of animal models. Preferably, the cornea assays are performed using rats. By way of example, an assay for suspected modulators of Cyr61 using this assay is disclosed. To perform this assay, Cyr61 is initially titrated using primary capillary endothelial cells to determine effective concentrations of Cyr61. Subsequently, Cyr61, in the presence or absence of a suspected modulator, is surgically implanted into the corneas of mammalian laboratory animals, e.g., rabbits or rats. In a preferred embodiment, Cyr61 (or Cyr61 and a suspected modulator) is embedded in a biocompatible matrix, using matrix materials and techniques that are standard in the art. Subsequently, eyes containing implants are visually observed for growth of the readily visible blood vessels within the eye. Control implantations may consist of physiologically balanced buffers embedded in the same type of matrix and implanted into eyes of the same type of laboratory animal receiving the Cyr61-containing implants.
# Although rats of various sizes can be used in the cornea assay, a preferred size for the rats is 150-200 g/animal. Anesthesia is induced with Methoxyflurane and is maintained for 40-60 minutes with sodium pentobarbital (50 mg/kg, delivered intraperitoneally). The eyes are gently opened and secured in place by clamping the upper eyelid with a non-traumatic hemostat. Two drops of sterile proparacaine hydrochloride (0.5%) are then placed on each eye as to effect local anesthesia. Using a suitable surgical blade such as a No. 11 Bard Parker blade, an approximately 1.5 mm incision is made approximately 1 mm from the center of the cornea. […] Once the cornea pocket is made, the spatula is removed and the distance between the limbus and base of the pocket is measured to make sure the separation is at least about 1 mm. […]
# Following surgery, animals are examined daily for seven days with the aid of a stereomicroscope to check for inflammation and responses. […] During this seven day period, animals are monitored for implant position and corneal exudate. […]
Molecule,binding of activated versus unactivated αllbβ3 (αllbβ3),Kd (αllbβ3),angiogenic effect in cornea assay (cornea),"eyes showing blood vessel growth after seven days (cornea; FGF 0.15 μM (six animals), Cyr61 1 μg/ml (seven animals))"
"Fisp12: Cysteine-rich murine protein, SEQ ID NO:6, mouse ortholog of CTGF (protein, listed as Mus musculus) MLASVAGPISLALVLLALCTRPATGQDCSAQCQCAAEAAPHCPAGVSLVLDGCGCCRVCAKQLGELCTERDPCDPHKGLFCDFGSPANRKIGVCTAKDGAPCVFGGSVYRSGESFQSSCKYQCTCLDGAVGCVPLCSMDVRLPSPDCPFPRRVKLPGKCCKEWVCDEPKDRTAVGPALAAYRLEDTFGPDPTMMRANCLVQTTEWSACSKTCGMGISTRVTNDNTFCRLEKQSRLCMVRPCEADLEENIKKGKKCIRTPKIAKPVKFELSGCTSVKTYRAKFCGVCTDGRCCTPHRTTTLPVEFKCPDGEIMKKNMMFIKTCACHYNCPGDNDIFESLYYRKMYGDMA",greater binding of activated versus unactivated,15 nM,confirm the effect of angiogenic factors,
"Cyr61: Cysteine-rich ECM signaling protein; murine sequence SEQ ID NO:2, recombinant from Baculovirus-infected Sf9 cells (protein, listed as Mus musculus) MSSSTFRTLAVAVTLLHLTRLALSTCPAACHCPLEAPKCAPGVGLVRDGCGCCKVCAKQLNEDCSKTQPCDHTKGLECNFGASSTALKGICRAQSEGRPCEYNSRIYQNGESFQPNCKHQCTCIDGAVGCIPLCPQELSLPNLGCPNPRLVKVSGQCCEEWVCDEDSIKDSLDDQDDLLGLDASEVELTRNNELIAIGKGSSLKRLPVFGTEPRVLFNPLHAHGQKCIVQTTSWSQCSKSCGTGISTRVTNDNPECRLVKETRICEVRPCGQPVYSSLKKGKKCSKTKKSPEPVRFTYAGCSSVKKYRPKYCGSCVDGRCCTPLQTRTVKMRFRCEDGEMFSKNVMMIQSCKCNYNCPHPNEASFRLYSLFNDIHKFRD",greater binding of activated versus unactivated,25 nM,confirm the effect of angiogenic factors,all seven
